Data reported in patent US20220089741A1 (HUABO BIOPHARM SHANGHAI, published 2022).

B1: 36C06-D8 (antibody, V domains shown)
VH: QVQLQQSGAELVKPGASVKLSCKASGYAFTGYTIHWVKQRSGLGLEWLGWFYPGSGTLKYNEKFKDKATLTADKSSSTVYLELSRLTSEDSAVYFCARHGTGTLMAMDYWGQGTSVTVSS
VL: DVVVTQTPLSLPVSFGDQVSISCRSSQSLANSYGNTYLSWYLHKPGQSPQLLIYGISNRFSGVPDRFSGSGSGTDFTLKISTIKPEDLGMYYCLQGTHQPPTFGGGTKLEIK
notes: also called hybridoma 36C06/D8; mouse monoclonal antibody against human PD-L1
B2: chimeric antibody 900289 (antibody, V domains shown)
VH: B1 VH
VL: B1 VL
notes: Expressed in CHO-S cells; also called chimeric IgG1-kappa antibody; human-mouse chimeric antibody
B3: humanized antibody 900339 (antibody, V domains shown)
VH: QVQLVQSGAEVKKPGASVKVSCKASGYAFTGYTIHWVRQAPGQRLEWMGWFYPGSGTLKYSEKFQGRVTITRDKSLSTAYMELSSLRSEDTAVYYCARHGTGTLMAMDYWGQGTLVTVSS
VL: DVVMTQTPLSLSVTPGQPASISCKSSQSLANSYGNTYLSWYLHKPGQSPQLLIYGISNRFSGVPDRFSGSGSGTDFTLKISRVEAEDVGVYYCLQGTHQPPTFGQGTKLEIK
notes: Humanized from the chimeric antibody; Expressed in CHO-S cells; also called humanized PD-L1 monoclonal antibody

Key:
[1] = biological target: human PD-L1 protein (hybridoma screening) (human, UniProt Q9NZQ7 19-239, limits assumed); assay: SPR, hybridoma monoclone
huPD-L1-his protein [2] = biological target: T1, huPD-L1-his protein (human, UniProt Q9NZQ7 19-239); assay: SPR (Biacore 8K), antibody captured on anti-human capture CM5 chip, huPD-L1 as analyte, 1:1 model
T1 construct: Bought protein; also called human PD-L1-His protein; human PD-L1 protein; not shown: His tag
Protocol: In this experiment, SPR method was used to determine antibody-antigen binding kinetics and affinity.
Anti-Human Capture-CM5 chip (GE, #BR-1005-30) was prepared according to the coupling method of Human Antibody Captrue Kit (GE, #BR-1008-39) and Amino Coupling Kit (GE, BR-1000-50). The chip was balanced at room temperature for 20-30 min, and loaded into a Biacore 8K instrument. B5D1 was diluted to the experimental working concentration with equilibration buffer. The antigen was diluted to 50 nM with equilibration buffer, then diluted 3 times for 7 concentration gradients, and 2 zero concentrations (i.e. equilibration buffer) and 1 repeated concentration (generally is a repeat of lowest concentration) were set. In the order of antibody, antigen huPD-L1 (Sino Biological, #10084-H08H), and regeneration, 10 antigen concentrations (2 zero concentrations, 7 gradient concentrations, and 1 repeat concentration) were cyclically subjected to experimental analysis. The antigen injection flow rate was 30 uL/min, the binding time was 120 seconds, and the dissociation time was 600 seconds.

rhPD-L1-his protein = biological target: T2, rhPD-L1-his protein (monkey, UniProt G7PSE7 19-238); assay: ELISA, rhPD-L1-his coated
T2 construct: Bought protein; also called monkey PD-L1 protein; Sino Biological #90251-C08H; not shown: C-terminal His tag

huPD-L1-his protein [3] = biological target: T1, huPD-L1-his protein; assay: ELISA, huPD-L1-his coated at 1 ug/ml
Protocol: Specifically, 1 ug/ml huPD-L1-his protein (purchased from Sino Biological, #10084-H08H) was added to the ELISA plate at 50 ul/well, and coated at 2-8° C. for more than 12 hours. The raffinate of plate coating was discarded, 200 ul of 3% milk was added to each well, and blocked at room temperature for 1 hour. PBST not less than 200 uL was added to each well for washing once. The antibody sample to be tested was diluted to 100 ug/ml, then diluted 5 times for 11 gradients, and added to the ELISA plate at 100 uL/well. After incubation at room temperature for 1 hour, PBST no less than 200 uL was added to each well. After washing for 4 times, HRP-conjugated Rabbit Anti-Human IgG Fc Antibody (Luoyang Baiaotong Experimental Material Center, #C030222) diluted 25000 times with 3% milk-PBST was added as 100 uL/well. After incubating at room temperature for 1 hour, PBST not less than 200 uL was added to each well, washed 6 times and beat dry. 100 uL of TMB Substrate was added to each well. After 5 minutes of reaction at room temperature, 50 uL/well of 2M H2504 was added to terminate the reaction. The ELISA plate with stopped reaction was placed on the microplate reader, and the absorbance of OD450 value was read at 450 nm wavelength.

huPD-L1-moFc = biological target: T3, huPD-L1-moFc (human, UniProt Q9NZQ7 19-238, limits assumed); assay: flow cytometry competition: blocking of huPD-L1-moFc binding to cells expressing human PD-1
T3 construct: also called 800023, Huabo Bio; not shown: mouse Fc
Protocol: The suspension of cells (3C2-huPD-1-6F4, Huabo Bio) expressing human PD-1 in the logarithmic growth phase was centrifuged (1000 rpm×5 min) to discard the culture medium, and the cells were resuspended with 1% BSA/PBS to a living cell density of 1×10⁶/ml. […] The reacted 96-well U-shaped plate was resuspended with 1% BSA/PBS, centrifuged (300 g×3 min) to discard the supernatant, and washed like this for twice. […] The reacted 96-well U-shaped plate was resuspended with 1% BSA/PBS, centrifuged (300 g×3 min) to discard the supernatant, and washed like this for three times. Finally, the plate was resuspended with 100 uL of 1% BSA/PBS for each well and the fluorescence intensity of the first channel was detected by flow cytometry (BD, #Accuri C6).

T1 sequence (Q9NZQ7 19-239 limits assumed): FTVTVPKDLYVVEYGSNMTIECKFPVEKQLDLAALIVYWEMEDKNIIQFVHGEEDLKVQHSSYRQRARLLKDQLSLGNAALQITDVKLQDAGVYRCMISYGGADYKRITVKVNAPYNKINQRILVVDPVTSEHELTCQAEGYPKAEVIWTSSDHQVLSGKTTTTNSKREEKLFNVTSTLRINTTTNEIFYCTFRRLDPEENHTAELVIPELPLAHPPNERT
T2 sequence (G7PSE7 entry or part of it limits assumed): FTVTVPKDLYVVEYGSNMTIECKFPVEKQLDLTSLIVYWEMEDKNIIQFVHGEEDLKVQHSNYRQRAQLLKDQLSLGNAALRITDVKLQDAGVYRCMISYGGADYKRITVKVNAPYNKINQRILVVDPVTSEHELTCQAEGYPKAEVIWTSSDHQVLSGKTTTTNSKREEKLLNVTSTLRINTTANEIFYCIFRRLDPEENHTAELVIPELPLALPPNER
T3 sequence (Q9NZQ7 19-238 limits assumed): as the sequence (G7PSE7 entry or part of it limits assumed) above, with T33A, S34A, N62S, Q68R, R82Q, L173F, A185T, I192T, L215H counted along it
Sequence of human PD-L1 protein (hybridoma screening) (Q9NZQ7 19-239 limits assumed): as the sequence (Q9NZQ7 19-239 limits assumed) above

| Binder | Kd [1] [nM] | Kd (huPD-L1-his protein [2]) [nM] | koff (huPD-L1-his protein [2]) [s⁻¹] | kon (huPD-L1-his protein [2]) [M⁻¹ s⁻¹] | EC50 (rhPD-L1-his protein) [mg/L] | EC50 (huPD-L1-his protein [3]) [mg/L] | IC50 (huPD-L1-moFc) [mg/L] |
| --- | --- | --- | --- | --- | --- | --- | --- |
| B1 | 2.74 |  |  |  |  |  |  |
| B2 |  | 1.34 | 0.000312 | 233000 | 0.14 | 0.0433 | 0.00199 |
| B3 |  | 0.94 | 0.000219 | 233000 | 0.115 | 0.0485 | 0.00242 |
